Patent US9926377B2, “Anti-GPC3 antibodies and immunoconjugates” (GENENTECH, INC., priority 2014, dated 2018)

How the values were obtained:
biotinylated GPC3 = biotinylated GPC3 (Homo sapiens, UniProt P51654); assay: Epitope binning competition assay (Octet RED384); format: binding; details: 7H1 or 4G7 as first saturating antibody 10 μg/ml; competing antibodies 5 μg/ml
Description: Epitope binning of anti-GPC3 antibodies was performed using a competition assay. Using the Octet RED384 instrument (ForteBio), biotinylated GPC3 was captured onto Streptavidin biosensors at 10 μg/ml for 600 seconds. Binding of the first antibody to saturation was achieved by adding 10 μg/ml for 600 seconds. The same biosensors were dipped into the competing antibodies at 5 μg/ml and binding was measured for 600 seconds. […] Antibody 7H1 was used as the first saturating antibody. A subsequent experiment was performed using antibody 4G7 as the first saturating antibody.

GPC3 [1] = target: T1, GPC3 (Homo sapiens, UniProt P51654); assay: FACS binding to human GPC3 fragments expressed on 293S cells; parameters: C-terminal glycophosphatidylinositol anchor (GPI link) (C); expressed in transfected cells; host or cells: 293S cells, transient; details: N-terminal fragment, amino acids 25 to 358 of human GPC3, on 293S cells
Text: (§1) C-terminal truncation constructs of human GPC3 were made to further refine the epitopes for antibodies 7H1 and 4G7. […] The three C-terminal truncations each comprised the GPC N-terminal signal sequence (SS) and C-terminal glycophosphatidylinositol anchor (GPI link). […] See FIG. 7 (Santa Cruz Biotechnology antibody 1G12, which was raised to amino acids 511-580 of human GPC3, was used as a positive control for C-terminal fragment binding). Antibody 7H1 was reformatted as a chimeric antibody with human A118C cysteine-engineered IgG1 and Igκ constant regions (SEQ ID NOs: 42 and 43).
Target sequence in this assay (P51654 25-358): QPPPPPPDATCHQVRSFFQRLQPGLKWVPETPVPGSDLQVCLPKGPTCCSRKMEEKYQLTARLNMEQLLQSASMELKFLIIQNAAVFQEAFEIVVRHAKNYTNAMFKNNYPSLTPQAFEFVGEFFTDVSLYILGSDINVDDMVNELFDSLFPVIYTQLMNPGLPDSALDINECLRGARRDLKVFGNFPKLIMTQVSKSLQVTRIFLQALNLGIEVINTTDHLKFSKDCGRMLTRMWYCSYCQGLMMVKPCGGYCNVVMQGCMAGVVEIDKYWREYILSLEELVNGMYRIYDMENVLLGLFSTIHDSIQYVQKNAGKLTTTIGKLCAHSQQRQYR

human GPC3 = target: T2, human GPC3 (Homo sapiens, UniProt P51654); assay: as above; details: C-terminal fragment, amino acids 359-560 of human GPC3, on 293S cells
T2 construct: C-terminal glycophosphatidylinositol anchor (GPI link) (C); expressed in transfected cells; host or cells: 293S cells, transient
T2 sequence (P51654 359-560): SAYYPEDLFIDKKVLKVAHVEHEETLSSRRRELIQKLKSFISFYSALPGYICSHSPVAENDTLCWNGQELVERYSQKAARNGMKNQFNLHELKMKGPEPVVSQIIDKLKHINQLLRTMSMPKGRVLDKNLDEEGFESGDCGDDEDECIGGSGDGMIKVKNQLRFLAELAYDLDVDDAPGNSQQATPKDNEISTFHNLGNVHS
Text: as §1

GPC3 [2] = target: T1, GPC3; assay: Binding to GPC3-expressing cells by FACS; parameters: endogenous in cells
Text: Positive clones were expanded and re-screened for binding to huGPC3, cynoGPC3, and HepG2 cells by ELISA, FACS, and immunohistochemistry (IHC). Thirteen antibodies were selected and purified, including antibodies 7H1 and 4G7. The heavy and light chain variable region sequences of antibody 7H1 are shown in SEQ ID NOs: 2 and 3, respectively. The heavy and light chain variable region sequences of antibody 4G7 are shown in SEQ ID NOs: 26 and 27, respectively.
Antibody 7H1 also detects human, cynomolgus monkey, rat, and mouse GPC3 by Western blot.
Target sequence in this assay (P51654 25-554): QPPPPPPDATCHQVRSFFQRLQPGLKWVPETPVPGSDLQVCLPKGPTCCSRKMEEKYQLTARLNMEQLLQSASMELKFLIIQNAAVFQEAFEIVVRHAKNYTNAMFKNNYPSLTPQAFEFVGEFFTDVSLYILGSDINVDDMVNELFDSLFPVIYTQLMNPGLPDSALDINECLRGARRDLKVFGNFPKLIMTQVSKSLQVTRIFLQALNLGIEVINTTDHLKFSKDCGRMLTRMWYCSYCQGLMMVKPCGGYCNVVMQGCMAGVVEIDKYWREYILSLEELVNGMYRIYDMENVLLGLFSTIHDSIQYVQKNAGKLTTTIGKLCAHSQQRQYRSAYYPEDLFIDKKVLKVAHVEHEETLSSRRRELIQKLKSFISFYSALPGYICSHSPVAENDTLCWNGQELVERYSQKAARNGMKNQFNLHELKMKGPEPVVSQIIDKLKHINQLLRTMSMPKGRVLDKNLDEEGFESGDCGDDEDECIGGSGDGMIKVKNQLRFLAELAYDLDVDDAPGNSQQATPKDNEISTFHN

Chain of biotinylated GPC3 (P51654 25-554): as above

B1: 4G7: anti-GPC3 monoclonal antibody; heavy and light chain variable regions SEQ ID NOs: 26 and 27 (antibody, V domains shown)
VH: EVQLQQSGTVLARPGASVKMSCKASGYTFTSYWVHWVKQRPGQGLEWIGAIYPGNIDASYNQKFKGKAKLTAVTSTSTAYMELSSLTNEDSAVYYCSYDYDAWFVYWGQGTLVTVSA
VL: DIQMTQSHKFMSTSVGDRVSITCKASQDVSTAVAWYQQKPGQSPTLLIYSASYRYTGVPDRFTGSGSGTDFTFTISSVQAEDLAVYYCQQHYFTPRTFGGGTKLELK
- Epitope bin (biotinylated GPC3): different epitope bins
- Binding by FACS (GPC3 [1]): did not show significant binding
- Binding by FACS (human GPC3): did not show significant binding
- Reactivity by FACS (GPC3 [2]; 293S cells expressing GPC3): react strongly
- Reactivity by FACS (GPC3 [2]; HepG2 X1 cells): react strongly
